The values below come from paper PMC3903436.

Assay [1] deals with MUC16 (CA125), native, membrane-bound on cancer cells (human (endogenous in OVCAR3 and HeLa)) (UniProt Q8WXI7). The assay can be described thus: flow cytometry on cells; OVCAR3 cells in suspension incubated with HEK293T-derived culture supernatant containing soluble mesothelin; bound mesothelin detected with anti-FLAG mAb M2 and FITC-conjugated secondary Ab; culture medium alone as negative control.

For assay [2] the target is unchanged.
For assay [3] the target is unchanged. This is another data set of the same source.

“soluble mesothelin (FLAG tagged, GPI anchor-deleted mature form) (ligand)”: the percent of cells positive for bound mesothelin (FLAG epitope tag) in assay [1] was 100%. As to “Meso-TR3 (mesothelin-TR3 fusion protein) (from UniProt P50591 39-281; P50591 39-281; P50591 39-281)”, the share of MUC16-positive cells in the HeLa cell pool after Meso-TR3 treatment, by flow cytometry (80% to 54%; non-targeted TR3 did not shift the ratio) in assay [2] was more than 30%. In addition, the reduction of the luciferase signal (tumor burden) of intraperitoneal OVCAR3 xenografts in NOD/SCID mice at 7 days of i.p. treatment with Meso-TR3 (control and TR3 groups did not respond) in assay [3] is 600 fold.
